What was measured:
MS2 coat protein [1] = assay: apparent KD of MS2 coat protein, switch ON state; designed switch direction (-1 OFF switch, 1 ON switch): -1; higher = weaker reporter binding; conditions: FMN input: 0 or 200 uM; Eterna round: R93 (includes R88 designs)
Method in brief: (§1)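 Designed RNA switches were transcribed on-chip from Illumina sequencing clusters. They were then titrated with SNAP-549-labelled MS2 coat protein (twofold steps, 0.7 or 1.5 nM to 3 µM; 0.8–1.5 h to 10–20 min per step) in 100 mM Tris-HCl pH 7.5, 80 mM KCl, 4 mM MgCl2, without or with constant ligand. Apparent KD is the per-design median of normalised cluster binding-curve fits.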

MS2 coat protein [2] = assay: apparent KD of MS2 coat protein, switch OFF state (with FMN for OFF switches, without FMN for ON switches); designed switch direction (-1 OFF switch, 1 ON switch): -1; higher = weaker reporter binding; conditions: FMN input: 0 or 200 uM; Eterna round: R93 (includes R88 designs)
Method in brief: as §1

| Sequence | apparent KD of MS2 coat protein (MS2 coat protein [1]) [µM] | apparent KD of MS2 coat protein (MS2 coat protein [2]) [µM] |
| --- | --- | --- |
| GGAUGCCUAGGAUAUACAUGAGGAUCACCCAUGUGAGAGAAAAAAGUGAGAAAGAAAAGUAGAAGGAGGUGUCG [salish99-ex3-91] | 0.038 | 0.0924 |
| GGCUAGUCAGGAUAUACGAACAUGUCAAAAGACGUGAAGGGACAUGAGGAUCACCCAUGUAGAAGGGACUAGCA [salish99-ex2-12] | 0.0315 | 0.183 |
| GGUUGACAAGGAUAUACAUGAGGAUCACCCAUGUGAGAGAAAAAAGUGAGAAAGAAAAGUAGAAGGUGUUGACG [salish99-ex3-62] | 0.031 | 0.085 |
| GGUUGGCGAGGAUAUACAUGAGGAUCACCCAUGUGAGAAAAAAAAGUGAGAAAGAAAAGUAGAAGGCGCUGACG [salish99-ex3-49] | 0.0401 | 0.157 |
| GGUUGGGUAGGAUAUACAUGAGGAUCACCCAUGUGAGAGAAAAAAGUGAGAAAGAAAAGUAGAAGGGCUUGACG [salish99-ex3-67] | 0.0803 | 0.0587 |
| GUAAACCUAGGAUAUACAUGAGGAUCACCCAUGUAAAAUUUAAUAAAAAGAAAAUCAAGUAGAAGGAGGUAGAU [JR_Exc003_Sub1224] | 0.0254 | 0.0293 |
| GUAGAGUGAGGAUAUGAUUAAAAGAAGGGAAAGAGACAGCAUCAGAAGGCACAUGAGGAUCACCCAUGUAUGAA [JR_Exc004_Sub1224] | 0.0269 | 0.0271 |
| UAAAAACAUGAGGAUCACCCAUGUAAGGAUAUGCUGAAAAACACGGAAAAAACGUGCAGCAGAAGGUACAAAAU [Mat - Exclusion 1 - Eli mod - D98] | 0.019 | 0.0476 |
| UAAAACCUAGGAUAUACAUGAGGAUCACCCAUGUGGCACUCCGCAGGCAUUGUUCCCAGUAGAAGGAGGACACG [Inan] | 0.0206 | 0.0239 |
| UAAAACUUAGGAUAUACAUGAGGAUCACCCAUGUCAAGACAAGGAAGGUCCUAAGCCGGUAGAAGGAAGAAAAU [Bexeora] | 0.0296 | 0.0254 |
| UAAAGACAUGAGGAUCACCCAUGUGAGGAUAUCGGAGAUAACAGAACAUCAAGUUCAACGAGAAGGCACAGAAA [JR_Exc001_Sub401] | 0.0474 | 0.0947 |
| UAAAGACAUGAGGAUCACCCAUGUGAGGAUAUCGGAGAUAACAGAACAUCAAGUUCAGCGAGAAGGCACAGGAA [JR_Exc001_Sub403] | 0.047 | 0.0655 |
| UAAAGACAUGAGGAUCACCCAUGUGAGGAUAUCGGAGAUGACGGAACAUCAAGUUCGGCGAGAAGGCGCAGGAA [JR_Exc001_Sub406] | 0.0309 | 0.0307 |
| UAAAGACAUGAGGAUCACCCAUGUGAGGAUAUUGGUGACUAUAAAAAAAAAUAGUCACCGAGAAGGCAUAGGAA [JR_Exc001_Sub302] | 0.031 | 0.0424 |
| UACGUAUGAGGAUAUACAAACAGAAAAAUCAGACGUAAGUGACAUGAGGAUCACCCAUGUAGAAGGCAUAUGCA [JR_Exc002_Sub906] | 0.0269 | 0.0197 |
| UUAAUAGUAGGAUAUACAUGAGGAUCACCCAUGUAGCAACUACACAAAGGAACCUGAUGUAGAAGGACUUCCAG [Attionuson] | 0.0124 | 0.0136 |
| UUGGGACAUGAGGAUCACCCAUGUAAGGAUAUUGGCGCGCCGGCUCUGUCUGUUCCGCCGAGAAGGUACACGUU [Exclusion I] | 0.0455 | 0.102 |
